Test system: MS2 coat protein
Assay: apparent KD of MS2 coat protein; designed switch direction (-1 OFF switch, 1 ON switch): -1; higher = weaker reporter binding
Method in brief: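 Stalled E. coli RNA polymerase transcribed designed RNA switches on Illumina chips, which were then titrated with SNAP-549-labelled MS2 coat protein, doubling from 0.7 or 1.5 nM to 3 µM. Steps lasted from 0.8–1.5 h at the lowest concentration to 10–20 min at the highest. The apparent KD is each design's median over clusters of curve-fitted normalised fluorescence.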

[1] = Eterna round: R95, input ligand: microRNA oligo, concentration not stated
[2] = input ligand: microRNA oligo, concentration not stated

Row | Sequence | apparent KD of MS2 coat protein (input ligand: FMN 200 uM) [nM] | apparent KD of MS2 coat protein (input ligand: none) [nM] | other results
1 | CACGAACAUGAGGAUCACCCAUGUAAGGAUAUGGCCAACGACUUAAACUAAAGGUUGGCCAGAAGGUGCGGGUG [Eternabot (L2) Solution 61] (Eterna round: R97, puzzle: Exclusion 1) | 52.5 | 286 | –
2 | GUCAUGUAAGGAUAUCUUACAUGUGACUUCGGUCACUGUCGAGAGAAGGUACAUGAGGAUCACCCAUGUUCGAC [Ex4-3: 53] (puzzle: Exclusion 4) | – | – | apparent KD of MS2 coat protein [1]: 15.6 nM
3 | GGUGGACAUGAGGAUCACCCAUGUGAGGAUAUCGGCUGGCUAGCGGCGGAUGGCUUCUCGAGAAGGCGCAUUGU [Exclusion 1 V82] (puzzle: Exclusion 1) | – | – | apparent KD of MS2 coat protein [1]: 67.7 nM
4 | CAGUACUGAGGAUAUACAUGAGGAUCACCCAUGUGUUCCUGCUAGGAUACUAGCAAGGGUAGAAGGCAGUACUG [Mat - Exclusion 3 - Eli Mod - D4] (Eterna round: R97, puzzle: Exclusion 3) | 59.4 | 19.7 | –
5 | GGGUAGUUAGGAUAUCAGACUAGCUGCUCAACAGCAGCAGCUGAGAAGGGACUUGAGGAUCACCCAAGUGGAAG [Ceisis] (Eterna round: R97, puzzle: Exclusion 4) | 64.9 | 70.1 | –
6 | CUGCUGGAGCGGUGCUUUGGUCGUACAUGAGGAUCACCCAUGUAGGAUAUGGUAAAAUUUGCUUGCUAGAAGGAUAGAGUGGUC [salish99_ExNG3_r04_614] (Eterna round: R96, puzzle: Exclusion NG 3) | 96.9 | 61.3 | apparent KD of MS2 coat protein [2]: 42.4 nM
7 | AUGCGUGGCUAGGAUAUUGAGGAAUUUAGCCAGCGAGAAGGAGCCACAUGAGGAUCACCCAUGUGGUGAACCUC [jl-ex6-4.60 ViennaUCT mod] (Eterna round: R97, puzzle: Exclusion 6) | 17.7 | 18.5 | –
8 | CCACGACAUGAGGAUCACCCAUGUGAGGAUAUGGCCUGUAAAGCGUGAGCUGAAUCAAUCAGAAGGCGCGUGGG [salish99_ex1_r4_058] (Eterna round: R97, puzzle: Exclusion 1) | 119 | 46.1 | –
9 | UGCAGACGAGGAUAUAAACGAUAUAACAUGAGGAUCACCCAUGUACGAUCGAUAGAUCGUUUAGAAGGCGUCUGCU [E5/9-A3] (Eterna round: R97, puzzle: Exclusion 5) | 14.5 | 14.1 | –
10 | AAUUAAACAAGCAGAUCCCACAUGAGGAUCACCCAUGUGCUCGUCUUAUAAGGUACUGUGACGAUAGUCACGGUACC [Mat - Sensor, turn-off var - Eli Mod - D65] (Eterna round: R97, puzzle: Sensor, turn-off variant 1) | 44.6 | 42.7 | –
11 | UCAGAGCGAGGAUAUGCUGGUGUUAUUCACAUUUGUCCGCGACAUGAGGAUCACCCAUGUAGAAGGCGUAGCCA [Eternabot (L2) Solution 44] (Eterna round: R97, puzzle: Exclusion 2) | 104 | 76.9 | –
12 | AAAUCUGAGGAGGAUAUGGUAUAGGAAAUGGUGCCAGAAGGUUUCACAUGAGGAUCACCCAUGUCAAAUAGUGA [EX6 #63] (Eterna round: R97, puzzle: Exclusion 6) | 45.7 | 52.5 | –
13 | AUAGGCUUUUAUAUCCUUAACAUGAGGAUCACCCAUGUUCGUCUUAUGAUGGUCUGAUCCCUGAGGAUCGGACCGUU [JL-sv1-2.05 Brourd Mod] (puzzle: Sensor v3, turn-off variant 1) | – | – | apparent KD of MS2 coat protein (Eterna round: R95, input ligand: FMN 200 uM): 32.3 nM; apparent KD of MS2 coat protein [1]: 134 nM; apparent KD of MS2 coat protein (Eterna round: R95, input ligand: none): 35.4 nM
14 | UUGCCGCGAGGAUAUAUAGACGGGUUCAAUACGUGUCUCGGACUUGAGGAUCACCCAAGUAGAAGGCUUUUUAU [LRO-Excl2-12-mod _r4_621 by salish99] (Eterna round: R97, puzzle: Exclusion 2) | 15.5 | 14.7 | –
15 | GCUGGACGAGGAUAUGCAAUCGUGCUUCGGCACGUAAGGUCACAUGAGGAUCACCCAUGUAGAAGGUGUCCAGC [E2/4-B2] (Eterna round: R97, puzzle: Exclusion 2) | 31.1 | 20.5 | –
16 | GCAGCAUAGUUUACUAACUGUUACAUGAGGAUCACCCAUGUUCAGGAUAUGGUCUGGAUUACAGGCCAGAAGGGAACAAGCUGC [Eli exng3 - 026] (Eterna round: R96, puzzle: Exclusion NG 3) | 7.64 | 11.3 | apparent KD of MS2 coat protein [2]: 8.42 nM
17 | GAGGUUUCAGGAUAUACAUGAGGAUCACCCAUGUUAUUAGUGUGGAUUGGUGUCCUGCGUAGAAGGGAGUAUAA [Eternabot (L2) Solution 93] (Eterna round: R97, puzzle: Exclusion 3) | 65.7 | 57.2 | –
18 | GUAGGGUCAGGAUAUACGCAGACGGUUUCGUCGGGUUAUCUACAUGAGGAUCACCCAUGUAGAAGGGAUCAUAC [Eternabot (L1) Solution 53] (Eterna round: R97, puzzle: Exclusion 2) | 53.4 | 15.8 | –

Row | Sequence | apparent KD of MS2 coat protein (input ligand: FMN 200 uM) [nM] | apparent KD of MS2 coat protein (input ligand: none) [nM] | other results
19 | AAUUAUAGAGGAUAUACAGAUUAAUACAUGAGGAUCACCCAUGUUCUUCAAUGUAUAUAUGUAGAAGGCUAAGGAA [JR_Ex5_Sub091] (Eterna round: R97, puzzle: Exclusion 5) | 181 | 238 | –
20 | GUAAACGAAGAGGAUAUAUGAUAUCAAAGCUUCAUAGAAGGCUUCACAUGAGGAUCACCCAUGUGAUCUUCAAA [Mat - Exclusion 6 - JL Mod - D26] (Eterna round: R97, puzzle: Exclusion 6) | 203 | 38.1 | –
21 | UUUACAAGCUAAAGAUCCCACAUGAGGAUCACCCAUGUUGCUGCCGGUGACGGUAGCAUAACUUUUGCUCGUCUUAU [JL TOV1 3.59] (Eterna round: R97, puzzle: Sensor, turn-off variant 1) | 278 | 342 | –
22 | AUUUUGUCAGGAUAUUGUUAGUUUAGUUGUUUGUAUUAGUUCGAGAAGGGACAUGAGGAUCACCCAUGUGAUUA [Ex4 #73] (Eterna round: R97, puzzle: Exclusion 4) | 148 | 92.2 | –
23 | GCUUAGGAAGGAUAUACAUGAGGAUCACCCAUGUUGACGCGGUAGGGCCCGGUAGCACGUAGAAGGUCUAUAGC [Eternabot (L2) Solution 46] (Eterna round: R97, puzzle: Exclusion 3) | 28.5 | 19.4 | –
24 | CUUUUGUGAGGAUAUCAGUAGUAGAACAAUAGUACUACUACUGAGAAGGCACAUGAGGAUCACCCAUGUUCCUU [Fiskers Ex 4 Super stable 44 mod 6] (puzzle: Exclusion 4) | – | – | apparent KD of MS2 coat protein [1]: 15.4 nM
25 | GCACGCAGUGUUAGGAUAUUAAUGGCACCGCAACGUAAGAAGGAACAUGAGGAUCACCCAUGUGUGCUAGAGAA [Eternabot (Original) Solution 14] (Eterna round: R97, puzzle: Brourd's mod of Exclusion 4) | 30.1 | 29.5 | –
26 | AUUGACUGAGGAUAUUGUGCUGCUGACAUGAGGAUCACCCAUGUAUGUUAACUCGGCCGUCGAGAAGGCAGAAAUG [BotMod 20 - Jieux - Exclusion 5] (Eterna round: R97, puzzle: Exclusion 5) | 22.6 | 28.2 | –
27 | GUACUAAGUGUGAGGAUAUCACAGGACGUUCACUAUGAGAAGGUACAUGAGGAUCACCCAUGUAUCGUGGGUCA [Eternabot (Original) Solution 7] (Eterna round: R97, puzzle: Brourd's mod of Exclusion 4) | 20.3 | 17.7 | –
28 | UUUUUAUAUGAAGGAUAUACUUAACAUGAGGAUCACCCAUGUGGUGUUGUGAGUGAGUGAGUUUAGUAGAAGGUCAAUUCUUUU [JMF's solution 11] (Eterna round: R96, puzzle: Exclusion NG 2) | 957 | 510 | apparent KD of MS2 coat protein [2]: 395 nM
29 | AACGAUCUAGGAUAUACAUGAGGAUCACCCAUGUAAGAGCCCAAACCAGGCUCCCUCUGUAGAAGGAGGUCAAA [Teleerre] (puzzle: Exclusion 3) | – | – | apparent KD of MS2 coat protein [1]: 40.8 nM
30 | AAGAGUGCAGGAUAUACUUGUUAGGACGGUUGGAUGAUUUGACAUGAGGAUCACCCAUGUAGAAGGGCAGAGAG [JR_Exclu2_Sub052] (puzzle: Exclusion 2) | – | – | apparent KD of MS2 coat protein [1]: 126 nM
31 | UGUCUUCAUAUCACAUGAGGAUCACCCAUGUUAUUCAUCUCGUAGGAUAUCGAGGUUUUUUAUUUCGAGAAGGACGUAUUGUUU [JR_ExcNG3_Sub077] (Eterna round: R96, puzzle: Exclusion NG 3) | 215 | 153 | apparent KD of MS2 coat protein [2]: 135 nM
32 | AUUGUAGUUGUGAGGAUAUCGUUGAUUUUUUGAAACGAGAAGGCACAUGAGGAUCACCCAUGUUAGUUGUUGGU [JR_BMOE4_Sub056] (puzzle: Brourd's mod of Exclusion 4) | – | – | apparent KD of MS2 coat protein [1]: 65.4 nM
33 | UUGUUGUGUGUAGGAUAUGCGUGUUAUUAUUAUGCAGAAGGACAUGAGGAUCACCCAUGUGUAUUGUUAUUAUAUAUUAUAUAU [Title] (Eterna round: R96, puzzle: Exclusion NG 1) | – | – | apparent KD of MS2 coat protein [2]: 15.6 nM
34 | GAGCUAUGAGGAUAUGCAUAUAUACGGUUUCGUGUGGUACUACAUGAGGAUCACCCAUGUAGAAGGCGUGGCAG [Mat - Exclusion 2 - Mod of JL - D78] (puzzle: Exclusion 2) | – | – | apparent KD of MS2 coat protein [1]: 16.7 nM
35 | GUUUUGAUAGGAUAUACAUGAGGAUCACCCAUGUCCCACCCGUUACCUCUGACCCUAUGUAGAAGGAUCGUUUA [Exy#15] (Eterna round: R97, puzzle: Exclusion 3) | 27.5 | 37.2 | –

From the supplement of paper PMC9170038
